Results on 2 molecules are retold here after patent US20120027773A1 (AVEO PHARMACEUTICALS, published 2012).

The target of test [1] is T1, human wild-type RON (cell surface) (human, UniProt Q04912 25-1400).
T1 construct: whole, on cells; also called Human RON; wt RON
In words: FACS titration on PC3 cells, 4 C. The procedure:
(§1) Binding to cell surface human wild-type RON and the delta 160 RON variant by antibodies 29B06 and 07F01 was measured at 4° C., using Fluorescence Activated Cell Sorting (FACS). PC3 cells expressing the human wild-type RON, and HT29 cells expressing the delta 160 variant, were harvested using cell dissociation buffer (Invitrogen), washed twice with FACS buffer (PBS with 0.5% BSA), and treated for 10 minutes with Cyto Q Antibody diluent and FC receptor block (Innovex Biosciences, Richmond, Calif.). Purified antibodies were diluted in FACS buffer over a concentration range from 0.02 nM to 40 nM. Cells were incubated with 100 μl of antibody for one hour, washed with FACS buffer three times, and incubated for 45 minutes with goat anti-mouse PE-conjugated antibody (Jackson ImmunoResearch Laboratories, West Grove, Pa.). Cells were washed three times with FACS buffer, resuspended in 300 μl of FACS buffer, and analyzed using a Beckman Coulter Cytomics FC 500 FACS instrument.

Test [2] concerns the target T2, delta 160 RON variant (cell surface) (human, UniProt Q04912 25-1400).
T2 construct: whole, on cells; Splice variant; also called delta 160 variant
In words: FACS titration on HT29 cells, 4 C. The protocol: as §1

Test [3] deals with T2, delta 160 RON variant (cell surface). Kind of test: FACS titration on HT29 cells, 4 C. The procedure: Binding to cell surface human wild-type RON and the delta 160 RON variant by antibodies 07F01, Sh07F01-62, 29B06, and Sh29B06-78 was measured at 4° C., using Fluorescence Activated Cell Sorting (FACS). PC3 cells expressing the human wild-type RON, and HT29 cells expressing the delta 160 variant, were harvested using cell dissociation buffer (Invitrogen), washed twice with FACS buffer (PBS with 0.5% BSA), and treated 10 minutes with Cyto Q Antibody diluent and FC receptor block (Innovex Biosciences, Richmond, Calif.). Purified antibodies were diluted in FACS buffer over a concentration range from 0.01 nM to 25 nM. Cells were incubated with 100 μl of antibody for one hour, washed with FACS buffer three times, and incubated for 45 minutes with goat anti-mouse PE-conjugated antibody (Jackson ImmunoResearch Laboratories, West Grove, Pa.) or donkey anti-human PE-conjugated antibody (Jackson ImmunoResearch Laboratories, West Grove, Pa.). Cells were washed three times with FACS buffer, resuspended in 300 μl of FACS buffer, and analyzed using a Beckman Coulter Cytomics FC 500 FACS instrument. All four antibodies were compared in the same experiment.
This is another data set of the same source.

Test [4] has the same target. Kind of test: FACS, 10 ug/ml antibody, HT-29 cells, 4 C. The protocol:
Binding to cell surface wild-type RON and delta 160 RON at 4° C. was determined for antibodies 07F01, 12B11, 17F06, 18H09, and 29B06, using FACS. Cells expressing wild-type RON (PC3), and cells expressing delta 160 RON (HT-29), were harvested using cell dissociation buffer (Invitrogen), washed twice with FACS buffer (0.5% BSA PBS) and treated with CytoQ Antibody diluent and FC receptor block (Innovex). Purified antibodies were diluted at a concentration of 10 μg/ml, in FACS buffer. Cells were incubated with 100 μl of antibody mix for one hour, washed with FACS buffer three times, and incubated for 45 minutes with goat anti-mouse PE conjugated antibody (Jackson Immunoresearch Laboratories). Cells were washed three times with FACS buffer, resuspended in 300 μl of FACS buffer and analyzed using a Beckman Coulter Cytomics FC 500 FACS instrument.
Background: A flow cytometer gives signals particle by particle.

In test [5] the target is T3, recombinant human RON SEMA and PSI domains (human, UniProt Q04912 25-571).
T3 construct: domain: SEMA+PSI; Commercial protein (R&D Systems); also called rhRON SEMA+PSI; hRON SEMA+PSI
Kind of test: SPR, Ab captured on anti-mouse IgG, 25 C, AVG. The procedure: The binding affinities and kinetics of binding of antibodies 07F01, 29B06, 17F06, 18H09, and 12B11 to recombinant human RON-ECD/mFc fusion protein (rhRON ECD/mFc) and recombinant human RON SEMA and PSI domains (rhRON SEMA+PSI) (R&D Systems, Inc., Minneapolis, Minn.) were measured by surface plasmon resonance, using a Biacore T100 instrument (GE Healthcare, Piscataway, N.J.).
Rabbit anti-mouse IgGs (GE Healthcare) were immobilized on carboxymethylated dextran CM4 sensor chips (GE Healthcare) by amine coupling, according to a standard protocol. Analyses were performed at 25° C. and 37° C., using PBS containing 0.05% surfactant P20 as running buffer. The antibodies were captured in individual flow cells at a flow rate of 10 μl/min. Injection time was varied for each antibody to yield an Rmax between 30 and 60 RU. 250 μg/mL mouse Fc were injected at 30 μl/min for 120 seconds to block non-specific binding of antibodies to Fc portion of the protein when needed. Buffer, rhRon ECD/mFc or rhRON SEMA+PSI diluted in running buffer was injected sequentially over a reference surface (no antibody captured) and the active surface (antibody to be tested) for 300 seconds at 60 μl/minute. The dissociation phase was monitored for up to 3600 seconds. The surface was then regenerated with two 60-second injections of 10 mM Glycine-HCl, pH 1.7, at a flow rate of 60 μl/min. The rhRON ECD/mFc or rhRON SEMA+PSI concentration range tested was 0.625 nM to 20 nM.
A general note: Surface plasmon resonance follows binding to a sensor surface in real time, without labels.

Read-outs that look alike come from different tables or passages of the source.

B1: 07F01 (antibody, mouse IgG1, kappa, V domains shown)
VH: EVKLLESGGGLVQPGGSLKLSCAASGFDFSRHWMSWVRLAPGKGLEWIAEINPDSRTINYTPSLKEKFIISRDNAKNSLFLQMNRVRSEDTALYYCARRVRIHYYGAMDCWGQGTSVTVSS
VL: DIVLTQSQKIVSTSVGARVSVTCKASQNVGSSLVWYQQKPGQSPKTLIYSASFRYSGVPDRFTGSGSGTDFTLTISNVQSEDLADYFCQQYNNYPLTFGAGTKLELKR
notes: Murine hybridoma monoclonal, IgG1/kappa; also called mu07F01; antibody 07F01
For orientation: Kd means the concentration at which binding is half-saturated. The term koff denotes the rate constant with which the complex falls apart. The term kon denotes a measure of how fast the partners come together. As for B1, the Kd in test [1] came out at 0.032 nM; in test [2], 0.024 nM; in test [3] it was 0.1 nM; in test [5], 0.088 nM. For the same molecule, the “HT-29 % cell surface binding” value in test [4] came to 99.1%. Besides, the koff in test [5] came to 0.00036 s⁻¹. The kon in test [5] was 5.2e+06 M⁻¹ s⁻¹.

B2: 29B06 (antibody, mouse IgG1, kappa)
heavy: EVQLQESGPSLVKPSQTLSLTCSVTGDSITSGYWNWIRKFPGNKLEYMGYISYSGKTYYNPSLKSRISITRDTSKNHYYLQLISVTAEDTATYYCARSKYDYAMDYWGQGTSVTVSSAKTTPPSVYPLAPGSAAQTNSMVTLGCLVKGYFPEPVTVTWNSGSLSSGVHTFPAVLQSDLYTLSSSVTVPSSTWPSETVTCNVAHPASSTKVDKKIVPRDCGCKPCICTVPEVSSVFIFPPKPKDVLTITLTPKVTCVVVDISKDDPEVQFSWFVDDVEVHTAQTQPREEQFNSTFRSVSELPIMHQDWLNGKEFKCRVNSAAFPAPIEKTISKTKGRPKAPQVYTIPPPKEQMAKDKVSLTCMITDFFPEDITVEWQWNGQPAENYKNTQPIMDTDGSYFVYSKLNVQKSNWEAGNTFTCSVLHEGLHNHHTEKSLSHSPGK
light: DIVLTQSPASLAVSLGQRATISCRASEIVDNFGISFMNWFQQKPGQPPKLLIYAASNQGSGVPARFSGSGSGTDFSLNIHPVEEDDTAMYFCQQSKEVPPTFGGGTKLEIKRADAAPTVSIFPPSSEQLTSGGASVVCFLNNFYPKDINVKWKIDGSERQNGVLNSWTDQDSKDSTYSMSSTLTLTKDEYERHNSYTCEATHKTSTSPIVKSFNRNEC
notes: Murine hybridoma monoclonal, IgG1/kappa; also called mu29B06; antibody 29B06
As for B2, the Kd in test [1] turned out to be 0.133 nM; in test [2], 0.146 nM; in test [3], 0.167 nM; in test [5], 0.18 nM. In test [4], the “HT-29 % cell surface binding” value was 99%. Further, in test [5], the koff amounted to 7e-05 s⁻¹. The kon in test [5] amounted to 420000 M⁻¹ s⁻¹.
